B1: E5U: fusion protein: Drosophila EcR at amino terminus, 5 linker segments (65 amino acids), ultraspiracle protein (protein)
chain: MKRRWSNNGGFMRLPEESSSEVTSSSNGLVLPSGVNMSPSSLDSHDYCDQDLWLCGNESGSFGGSNGHGLSQQQQSVITLAMHGCSSTLPAQTTIIPINGNANGNGGSTNGQYVPGATNLGALANGMLNGGFNGMQQQIQNGHGLINSTTPSTPTTPLHLQQNLGGAGGGGIGGMGILHHANGTPNGLIGVVGGGGGVGLGVGGGGVGGLGMQHTPRSDSVNSISSGRDDLSPSSSLNGYSANESCDAKKSKKGPAPRVQEELCLVCGDRASGYHYNALTCEGCKGFFRRSVTKSAVYCCKFGRACEMDMYMRRKCQECRLKKCLAVGMRPECVVPENQCAMKRREKKAQKEKDKMTTSPSSQHGGNGSLASGGGQDFVKKEILDLMTCEPPQHATIPLLPDEILAKCQARNIPSLTYNQLAVIYKLIWYQDGYEQPSEEDLRRIMSQPDENESQTDVSFRHITEITILTVQLIVEFAKGLPAFTKIPQEDQITLLKACSSEVMMLRMARRYDHSSDSIFFANNRSYTRDSYKMAGMADNIEDLLHFCRQMFSMKVDNVEYALLTAIVIFSDRPGLEKAQLVEAIQSYYIDTLRIYILNRHCGDSMSLVFYAKLLSILTELRTLGNQNAEMCFSLKLKNRKLPKFLEEIWDVHAIPPSVQSHLQITQEENERLERAERMRASVGGAITAGIDCDSASTSAAAAAAQHQPQPQPQPQPSSLTQNDSQHQTQPQLQPQLPPQLQGQLQPQLQPQLQTQLQPQIQPQPQLLPVSAPVPASVTAPGSLSAVSTSSEYMGGSAAIGPITPATTSSITAAVTASSTTSAVPMGNGVGVGVGVGGNVSMYANAQTAMALMGVALHSHQEQLIGGVAVKSEHSTTAGPTGPGPGGGSGGGSGTGPGGGSGGGSGTGPGGGSGGGSGTGPGGGSGGGSGTGPGGGSGGGSGTMDNCDQDASFRLSHIKEEVKPDISQLNDSNNSSFSPKAESPVPFMQAMSMVHVLPGSNSASSNNNSAGDAQMAQAPNSAGGSAAAAVQQQYPPNHPLSGSKHLCSICGDRASGKHYGVYSCEGCKGFFKRTVRKDLTYACRENRNCIIDKRQRNRCQYCRYQKCLTCGMKREAVQEERQRGARNAAGRLSASGGGSSGPGSVGGSSSQGGGGGGGVSGGMGSGNGSDDFMTNSVSRDFSIERIIEAEQRAETQCGDRALTFLRVGPYSTVQPDYKGAVSALCQVVNKQLFQMVEYARMMPHFAQVPLDDQVILLKAAWIELLIANVAWCSIVSLDDGGAGGGGGGLGHDGSFERRSPGLQPQQLFLNQSFSYHRNSAIKAGVSAIFDRILSELSVKMKRLNLDRRELSCLKAIILYNPDIRGIKSRAEIEMCREKVYACLDEHCRLEHPGDDGRFAQLLLRLPALRSISLKCQDHLFLFRITSDRPLEELFLEQLEAPPPPGLAMKLE
B2: E5R: fusion protein: Drosophila EcR at amino terminus, 5 linker segments, RXR (protein)
chain: MKRRWSNNGGFMRLPEESSSEVTSSSNGLVLPSGVNMSPSSLDSHDYCDQDLWLCGNESGSFGGSNGHGLSQQQQSVITLAMHGCSSTLPAQTTIIPINGNANGNGGSTNGQYVPGATNLGALANGMLNGGFNGMQQQIQNGHGLINSTTPSTPTTPLHLQQNLGGAGGGGIGGMGILHHANGTPNGLIGVVGGGGGVGLGVGGGGVGGLGMQHTPRSDSVNSISSGRDDLSPSSSLNGYSANESCDAKKSKKGPAPRVQEELCLVCGDRASGYHYNALTCEGCKGFFRRSVTKSAVYCCKFGRACEMDMYMRRKCQECRLKKCLAVGMRPECVVPENQCAMKRREKKAQKEKDKMTTSPSSQHGGNGSLASGGGQDFVKKEILDLMTCEPPQHATIPLLPDEILAKCQARNIPSLTYNQLAVIYKLIWYQDGYEQPSEEDLRRIMSQPDENESQTDVSFRHITEITILTVQLIVEFAKGLPAFTKIPQEDQITLLKACSSEVMMLRMARRYDHSSDSIFFANNRSYTRDSYKMAGMADNIEDLLHFCRQMFSMKVDNVEYALLTAIVIFSDRPGLEKAQLVEAIQSYYIDTLRIYILNRHCGDSMSLVFYAKLLSILTELRTLGNQNAEMCFSLKLKNRKLPKFLEEIWDVHAIPPSVQSHLQITQEENERLERAERMRASVGGAITAGIDCDSASTSAAAAAAQHQPQPQPQPQPSSLTQNDSQHQTQPQLQPQLPPQLQGQLQPQLQPQLQTQLQPQIQPQPQLLPVSAPVPASVTAPGSLSAVSTSSEYMGGSAAIGPITPATTSSITAAVTASSTTSAVPMGNGVGVGVGVGGNVSMYANAQTAMALMGVALHSHQEQLIGGVAVKSEHSTTAGPTGPGPGGGSGGGSGTGPGGGSGGGSGTGPGGGSGGGSGTGPGGGSGGGSGTGPGGGSGGGSGTMDTKHFLPLDFSTQVNSSLTSPTGRGSMAAPSLHPSLGPGIGSPGQLHSPISTLSSPINGMGPPFSVISSPMGPHSMSVPTTPTLGFSTGSPQLSSPMNPVSSSEDIKPPLGLNGVLKVPAHPSGNMASFTKHICAICGDRSSGKHYGVYSCEGCKGFFKRTVRKDLTYTCRDNKDCLIDKRQRNRCQYCRYQKCLAMGMKREAVQEERQRGKDRNENEVESTSSANEDMPVERILEAELAVEPKTETYVEANMGLNPSSPNDPVTNICQAADKQLFTLVEWAKRIPHFSELPLDDQVILLRAGWNELLIASFSHRSIAVKDGILLATGLHVHRNSAHSAGVGAIFDRVLTELVSKMRDMQMDKTELGCLRAIVLFNPDSKGLSNPAEVEALREKVYASLEAYCKHKYPEQPGRFAKLLLRLPALRSIGLKCLEHLFFFKLIGDTPIDTFLMEMLEAPHQMT

What was measured:
[1] = tested on: E0R (EcR-RXR fusion, 0 linker segments) (Drosophila melanogaster / Homo sapiens); test: EMSA; conditions: 1 uM muristerone A, 23 C
[2] = tested on: E0U (EcR-Usp fusion, 0 linker segments) (Drosophila melanogaster); test: EMSA; conditions: nearly ligand-insensitive
[3] = tested on: E5U (EcR-Usp fusion, 5 linker segments) (Drosophila melanogaster); test: EMSA; conditions: nearly ligand-insensitive; not significantly above E0U
[4] = tested on: E5R (EcR-RXR fusion, 5 linker segments) (Drosophila melanogaster / Homo sapiens); test: EMSA; conditions: 1 uM muristerone A, 23 C
[5] = tested on: R0E (RXR-EcR fusion, 0 linker segments) (Homo sapiens / Drosophila melanogaster); test: EMSA; conditions: 1 uM muristerone A, 23 C
[6] = tested on: U0E (Usp-EcR fusion, 0 linker segments) (Drosophila melanogaster); test: EMSA; conditions: barely detectable endodimer band; 1 uM muristerone A, 23 C
[7] = tested on: R5E (RXR-EcR fusion, 5 linker segments) (Homo sapiens / Drosophila melanogaster); test: EMSA; conditions: 1 uM muristerone A, 23 C
[8] = tested on: EcRE probe; test: Gel mobility shift analysis of EcRE probe binding by FDs; conditions: 1 μM murA vs vehicle, extracts of transfected 293 cells
Procedure: Preparation of the invention fusion protein FDs for gel shift analysis by transient transfection into 293 cells was as follows: 300 ng of individual receptor plasmids and 100 ng pCH110 internal control plasmid were cotransfected into 293 cells at 60% density in Costar 6-well plates. One well of each group was treated with 1 μM murA as ligand at the time of transfection. 40 hours later, extracts of transfected 293 cells were made by scraping the cells from a well into a low volume of phosphate buffered saline, pelleting the cells, resuspending them in 200 μl 5×gel shift buffer (Yao et al., supra 1992), and sonicating with a Kontes cell disrupter for three 10-sec. bursts at output level 30. The extracts were then centrifuged to clear the lysate and the protein was quantified. […]
Comparative gel mobility shift analyses of FDs with control in vitro translated receptor complexes were performed using double stranded EcRE probes and labeled by Klenow fill using ^32P-dCTP and cold dGAT by standard methods. […] Band volumes were quantified using laser scanning densitometry.
An autoradiogram of FDs and controls treated either with control vehicle or with 1 μM of murA as ligand was made with markers indicating endodimer FD or wild type receptor-binding complex band shifts. […] FIG. 2A is a graph that quantifies endodimer-sized band volumes obtained from the autoradiogram.

[9] = tested on: E4-luc reporter plasmid in 293 cells; test: Transient transfection luciferase transactivation assay with E4-luc reporter; format: cell-based, human; conditions: for Rel. Ind. = relative induction of individual receptor groups: +ligand (1 μM murA) versus −ligand; for +Lig/E4 = luciferase activity vs. reporter only with ligand / −Lig/E4 = luciferase activity vs. reporter only without ligand: transiently co-transfected 293 cells, relative to E4-luc reporter only; for +Lig/E4 = luciferase activity vs. reporter only with ligand: 1 μM murA
Procedure: For quantitative transactivation analysis, transfections were performed in triplicate in 24-well plates by calcium-phosphate co-precipitation with 100 ng of an individual receptor, the reporter plasmid E4-luc, and pCH110 (SV40-β-galactosidase) as an internal control. Briefly, the reporter plasmid, E4-luc, was constructed of 4-tandem EcREs inserted upstream of a thymidine kinase gene minimal promoter directing luciferase expression. […] 1 μM ligand was added at the time of transfection, and the cells were harvested for luciferase assay 40 hours later. Harvested cell extracts were split, and one part was analyzed in a luminometer for luciferase activity and the other part was analyzed for β-galactosidase activity using an orthonitrophenyl galactoside assay by standard methods. Luciferase levels were normalized to β-galactosidase values to correct for slight differences in transfection efficiency.

Molecule	binding signal (fold increase with ligand) [1]	binding signal (fold vs UNE constructs (average of ENU)) [2]	binding signal (fold vs UNE constructs (average of ENU)) [3]	binding signal (fold increase with ligand) [4]	binding signal (fold increase with ligand) [5]	binding signal (fold increase with ligand) [6]	binding signal (fold increase with ligand) [7]	relative-fold increase in response element binding (endodimer band) resulting from ligand treatment [8] [fold]	Rel. Ind. = relative induction of individual receptor groups [9] [fold]	+Lig/E4 = luciferase activity vs. reporter only with ligand [9]	−Lig/E4 = luciferase activity vs. reporter only without ligand [9]
EcRE probe	7	10	10	11	4	2	5				
B1								0.9	1.6	0.62	0.41
B2								11	8.4	3.89	0.46
